The nature of the data set: Western blot, mature upper band, B3GnT2-/- HEK293T. The settings on record: glycan lost; control: wild-type LRP6.

B1: LRP6: N859Q (protein)
parent chain: MGAVLRSLLACSFCVLLRAAPLLLYANRRDLRLVDATNGKENATIVVGGLEDAAAVDFVFSHGLIYWSDVSEEAIKRTEFNKTESVQNVVVSGLLSPDGLACDWLGEKLYWTDSETNRIEVSNLDGSLRKVLFWQELDQPRAIALDPSSGFMYWTDWGEVPKIERAGMDGSSRFIIINSEIYWPNGLTLDYEEQKLYWADAKLNFIHKSNLDGTNRQAVVKGSLPHPFALTLFEDILYWTDWSTHSILACNKYTGEGLREIHSDIFSPMDIHAFSQQRQPNATNPCGIDNGGCSHLCLMSPVKPFYQCACPTGVKLLENGKTCKDGATELLLLARRTDLRRISLDTPDFTDIVLQLEDIRHAIAIDYDPVEGYIYWTDDEVRAIRRSFIDGSGSQFVVTAQIAHPDGIAVDWVARNLYWTDTGTDRIEVTRLNGTMRKILISEDLEEPRAIVLDPMVGYMYWTDWGEIPKIERAALDGSDRVVLVNTSLGWPNGLALDYDEGKIYWGDAKTDKIEVMNTDGTGRRVLVEDKIPHIFGFTLLGDYVYWTDWQRRSIERVHKRSAEREVIIDQLPDLMGLKATNVHRVIGSNPCAEENGGCSHLCLYRPQGLRCACPIGFELISDMKTCIVPEAFLLFSRRADIRRISLETNNNNVAIPLTGVKEASALDFDVTDNRIYWTDISLKTISRAFMNGSALEHVVEFGLDYPEGMAVDWLGKNLYWADTGTNRIEVSKLDGQHRQVLVWKDLDSPRALALDPAEGFMYWTEWGGKPKIDRAAMDGSERTTLVPNVGRANGLTIDYAKRRLYWTDLDTNLIESSNMLGLNREVIADDLPHPFGLTQYQDYIYWTDWSRRSIERANKTSGQNRTIIQGHLDYVMDILVFHSSRQSGWNECASSNGHCSHLCLAVPVGGFVCGCPAHYSLNADNRTCSAPTTFLLFSQKSAINRMVIDEQQSPDIILPIHSLRNVRAIDYDPLDKQLYWIDSRQNMIRKAQEDGSQGFTVVVSSVPSQNLEIQPYDLSIDIYSRYIYWTCEATNVINVTRLDGRSVGVVLKGEQDRPRAVVVNPEKGYMYFTNLQERSPKIERAALDGTEREVLFFSGLSKPIALALDSRLGKLFWADSDLRRIESSDLSGANRIVLEDSNILQPVGLTVFENWLYWIDKQQQMIEKIDMTGREGRTKVQARIAQLSDIHAVKELNLQEYRQHPCAQDNGGCSHICLVKGDGTTRCSCPMHLVLLQDELSCGEPPTCSPQQFTCFTGEIDCIPVAWRCDGFTECEDHSDELNCPVCSESQFQCASGQCIDGALRCNGDANCQDKSDEKNCEVLCLIDQFRCANGQCIGKHKKCDHNVDCSDKSDELDCYPTEEPAPQATNTVGSVIGVIVTIFVSGTVYFICQRMLCPRMKGDGETMTNDYVVHGPASVPLGYVPHPSSLSGSLPGMSRGKSMISSLSIMGGSSGPPYDRAHVTGASSSSSSSTKGTYFPAILNPPPSPATERSHYTMEFGYSSNSPSTHRSYSYRPYSYRHFAPPTTPCSTDVCDSDYAPSRRMTSVATAKGYTSDLNYDSEPVPPPPTPRSQYLSAEENYESCPPSPYTERSYSHHLYPPPPSPCTDSS
As for B1, the localisation_or_trafficking result is listed as “no change”.

B2: LRP6: N865Q (protein)
parent chain: MGAVLRSLLACSFCVLLRAAPLLLYANRRDLRLVDATNGKENATIVVGGLEDAAAVDFVFSHGLIYWSDVSEEAIKRTEFNKTESVQNVVVSGLLSPDGLACDWLGEKLYWTDSETNRIEVSNLDGSLRKVLFWQELDQPRAIALDPSSGFMYWTDWGEVPKIERAGMDGSSRFIIINSEIYWPNGLTLDYEEQKLYWADAKLNFIHKSNLDGTNRQAVVKGSLPHPFALTLFEDILYWTDWSTHSILACNKYTGEGLREIHSDIFSPMDIHAFSQQRQPNATNPCGIDNGGCSHLCLMSPVKPFYQCACPTGVKLLENGKTCKDGATELLLLARRTDLRRISLDTPDFTDIVLQLEDIRHAIAIDYDPVEGYIYWTDDEVRAIRRSFIDGSGSQFVVTAQIAHPDGIAVDWVARNLYWTDTGTDRIEVTRLNGTMRKILISEDLEEPRAIVLDPMVGYMYWTDWGEIPKIERAALDGSDRVVLVNTSLGWPNGLALDYDEGKIYWGDAKTDKIEVMNTDGTGRRVLVEDKIPHIFGFTLLGDYVYWTDWQRRSIERVHKRSAEREVIIDQLPDLMGLKATNVHRVIGSNPCAEENGGCSHLCLYRPQGLRCACPIGFELISDMKTCIVPEAFLLFSRRADIRRISLETNNNNVAIPLTGVKEASALDFDVTDNRIYWTDISLKTISRAFMNGSALEHVVEFGLDYPEGMAVDWLGKNLYWADTGTNRIEVSKLDGQHRQVLVWKDLDSPRALALDPAEGFMYWTEWGGKPKIDRAAMDGSERTTLVPNVGRANGLTIDYAKRRLYWTDLDTNLIESSNMLGLNREVIADDLPHPFGLTQYQDYIYWTDWSRRSIERANKTSGQNRTIIQGHLDYVMDILVFHSSRQSGWNECASSNGHCSHLCLAVPVGGFVCGCPAHYSLNADNRTCSAPTTFLLFSQKSAINRMVIDEQQSPDIILPIHSLRNVRAIDYDPLDKQLYWIDSRQNMIRKAQEDGSQGFTVVVSSVPSQNLEIQPYDLSIDIYSRYIYWTCEATNVINVTRLDGRSVGVVLKGEQDRPRAVVVNPEKGYMYFTNLQERSPKIERAALDGTEREVLFFSGLSKPIALALDSRLGKLFWADSDLRRIESSDLSGANRIVLEDSNILQPVGLTVFENWLYWIDKQQQMIEKIDMTGREGRTKVQARIAQLSDIHAVKELNLQEYRQHPCAQDNGGCSHICLVKGDGTTRCSCPMHLVLLQDELSCGEPPTCSPQQFTCFTGEIDCIPVAWRCDGFTECEDHSDELNCPVCSESQFQCASGQCIDGALRCNGDANCQDKSDEKNCEVLCLIDQFRCANGQCIGKHKKCDHNVDCSDKSDELDCYPTEEPAPQATNTVGSVIGVIVTIFVSGTVYFICQRMLCPRMKGDGETMTNDYVVHGPASVPLGYVPHPSSLSGSLPGMSRGKSMISSLSIMGGSSGPPYDRAHVTGASSSSSSSTKGTYFPAILNPPPSPATERSHYTMEFGYSSNSPSTHRSYSYRPYSYRHFAPPTTPCSTDVCDSDYAPSRRMTSVATAKGYTSDLNYDSEPVPPPPTPRSQYLSAEENYESCPPSPYTERSYSHHLYPPPPSPCTDSS
For the protein B2, the localisation_or_trafficking result is listed as “no change”.

B3: LRP6: N926Q (protein)
parent chain: MGAVLRSLLACSFCVLLRAAPLLLYANRRDLRLVDATNGKENATIVVGGLEDAAAVDFVFSHGLIYWSDVSEEAIKRTEFNKTESVQNVVVSGLLSPDGLACDWLGEKLYWTDSETNRIEVSNLDGSLRKVLFWQELDQPRAIALDPSSGFMYWTDWGEVPKIERAGMDGSSRFIIINSEIYWPNGLTLDYEEQKLYWADAKLNFIHKSNLDGTNRQAVVKGSLPHPFALTLFEDILYWTDWSTHSILACNKYTGEGLREIHSDIFSPMDIHAFSQQRQPNATNPCGIDNGGCSHLCLMSPVKPFYQCACPTGVKLLENGKTCKDGATELLLLARRTDLRRISLDTPDFTDIVLQLEDIRHAIAIDYDPVEGYIYWTDDEVRAIRRSFIDGSGSQFVVTAQIAHPDGIAVDWVARNLYWTDTGTDRIEVTRLNGTMRKILISEDLEEPRAIVLDPMVGYMYWTDWGEIPKIERAALDGSDRVVLVNTSLGWPNGLALDYDEGKIYWGDAKTDKIEVMNTDGTGRRVLVEDKIPHIFGFTLLGDYVYWTDWQRRSIERVHKRSAEREVIIDQLPDLMGLKATNVHRVIGSNPCAEENGGCSHLCLYRPQGLRCACPIGFELISDMKTCIVPEAFLLFSRRADIRRISLETNNNNVAIPLTGVKEASALDFDVTDNRIYWTDISLKTISRAFMNGSALEHVVEFGLDYPEGMAVDWLGKNLYWADTGTNRIEVSKLDGQHRQVLVWKDLDSPRALALDPAEGFMYWTEWGGKPKIDRAAMDGSERTTLVPNVGRANGLTIDYAKRRLYWTDLDTNLIESSNMLGLNREVIADDLPHPFGLTQYQDYIYWTDWSRRSIERANKTSGQNRTIIQGHLDYVMDILVFHSSRQSGWNECASSNGHCSHLCLAVPVGGFVCGCPAHYSLNADNRTCSAPTTFLLFSQKSAINRMVIDEQQSPDIILPIHSLRNVRAIDYDPLDKQLYWIDSRQNMIRKAQEDGSQGFTVVVSSVPSQNLEIQPYDLSIDIYSRYIYWTCEATNVINVTRLDGRSVGVVLKGEQDRPRAVVVNPEKGYMYFTNLQERSPKIERAALDGTEREVLFFSGLSKPIALALDSRLGKLFWADSDLRRIESSDLSGANRIVLEDSNILQPVGLTVFENWLYWIDKQQQMIEKIDMTGREGRTKVQARIAQLSDIHAVKELNLQEYRQHPCAQDNGGCSHICLVKGDGTTRCSCPMHLVLLQDELSCGEPPTCSPQQFTCFTGEIDCIPVAWRCDGFTECEDHSDELNCPVCSESQFQCASGQCIDGALRCNGDANCQDKSDEKNCEVLCLIDQFRCANGQCIGKHKKCDHNVDCSDKSDELDCYPTEEPAPQATNTVGSVIGVIVTIFVSGTVYFICQRMLCPRMKGDGETMTNDYVVHGPASVPLGYVPHPSSLSGSLPGMSRGKSMISSLSIMGGSSGPPYDRAHVTGASSSSSSSTKGTYFPAILNPPPSPATERSHYTMEFGYSSNSPSTHRSYSYRPYSYRHFAPPTTPCSTDVCDSDYAPSRRMTSVATAKGYTSDLNYDSEPVPPPPTPRSQYLSAEENYESCPPSPYTERSYSHHLYPPPPSPCTDSS
As to B3, the localisation_or_trafficking result is reported as “no change”.

The values above are taken from paper PMC10047360.
